Assay results published in patent publication US20240376214A1, “ANTI-C-MET ANTIBODIES AND ANTIBODY-DRUG CONJUGATES” (BYONDIS B.V., priority 2021, published 2024).
Numbering of substitutions follows the chain as printed.

B1: ADC1 (antibody, human IgG1, kappa, V domains shown)
VH: EVQLQQSGPELLKPGASVKMSCKASGYIFTDYFMNWVKQSCGKSLEWIGRVNPKNGDITYNQKFRGKATLTVDKSLTTAYMQLNSLTSEDSAVYFCAYDGYYDGMDFWGQGTSVTVSS
VL: ENVLTQSPAIMSASPGEKVTMTCRANSSVSSNFLHWYQQKSGASPKLWISSTSNLAFGVPPRFSGSGSGTSYSLTISSVEAEDAATYYCHQYSGHPFTFGSGTKLEIKR
modifications: vc-seco-DUBA linker-drug on the engineered cysteine at HC position 41 (Kabat); DAR 1.5
B2: ADC2a (antibody, human IgG1, kappa, V domains shown)
VH: QVQLVQSGAELRKPGSSVKVSCRASGYVFPDYEMHWVRQACGQGLEWMGAFDPETGDTTYNQNFKGRVTIAADKSTSTAYMELRSLRSEDTAIYYCARDYKYLYYYAMDNWGQGTMVTVSS
VL: EIVLTQSPSLLSASIGDRVTIPCTASSSITSSYLHWYQQKPGKAPKLLIYSTTNLASGVPSRFSGSGSGTEFTLTISSLQPEDFATYYCHQYRRSPLTFGGGTKLEIKR
modifications: vc-seco-DUBA linker-drug on the engineered cysteine at HC position 41 (Kabat); DAR 1.7
B3: ADC2b (antibody, human IgG1, kappa, V domains shown)
VH: B2 VH with L11V, R12K, R23K, A71T, R84S, I93V, M116T
VL: B2 VL with E1D, V3Q, L4M, L10S, I15V, P22T, E71D
modifications: vc-seco-DUBA linker-drug on the engineered cysteine at HC position 41 (Kabat); DAR 1.7
B4: ADC2c (antibody, human IgG1, kappa, V domains shown)
VH: B2 VH with L11V, R12K, R23K, A71T, R84S, I93V, M116T
VL: B2 VL
modifications: vc-seco-DUBA linker-drug on the engineered cysteine at HC position 41 (Kabat); DAR 1.7
B5: ADC1a (antibody, human IgG1, kappa, V domains shown)
VH: QVQLVQSGAEVKKPGASVKVSCKASGYIFTDYFMNWVRQACGQGLEWMGRVNPKNGDITYNQKFRGRVSLTKDTSINTAYMELSGLTSDDTAIYYCAYDGYYDGMDFWGQGTSVTVSS
VL: ELVMTQSPSSLSASVGDRVTITCRANSSVSSNFLHWYQQKPGKAPKLLISSTSNLAFGVPSRFSGTGSGTDFSLTISSLQPEDFAIYYCHQYSGHPFTFGQGTKLEIKR
modifications: vc-seco-DUBA linker-drug on the engineered cysteine at HC position 41 (Kabat); DAR 1.7
B6: ADC3 (antibody, human IgG1, kappa, V domains shown)
VH: QIQLQQSGPELVKPGASVKISCKASGYTFTDYYLNWVKQRCGQGLEWIGLIFPGNDKTEYSEKFKGKATLTVDTSSSTAYIQLSRLSSEDSAIYFCSGGDYGGFVYWGQGTLVTVSS
VL: DIQMTQSPTSLSASVGETVTITCGASENIYGALNWYQRKQGKSPQLLIYGATNLADGMSSRFSGSGSGRQFSLKINSLHPDDVATYFCQNVLSSPLTFGSGTKLEIKR
modifications: vc-seco-DUBA linker-drug on the engineered cysteine at HC position 41 (Kabat); DAR 1.1
B7: ADC3a (antibody, human IgG1, kappa, V domains shown)
VH: QVQLVQSGAEVKKPGASVKVSCKASGYTFTDYYLNWVRQACGQGLEWMGLIFPGNDKTEYSEKFKGRVTLTTDTSISTAYMELSSLTSDDTALYYCSGGDYGGFVYWGQGTLVTVSS
VL: DIQLTQSPSSLSASVGDRVTITCGASENIYGALNWYQQKPGKAPKLLIYGATNLADGVPSRFSGSGSGTDFTLTISSLQPEDFATYYCQNVLSSPLTFGPGTKVDIKR
modifications: vc-seco-DUBA linker-drug on the engineered cysteine at HC position 41 (Kabat); DAR 1.9
B8: ADC3d (antibody, human IgG1, kappa, V domains shown)
VH: B7 VH with V5Q, Q6E, L70M, T72R, I76T, A79V, T87R, D89E, L93V
VL: B7 VL
modifications: vc-seco-DUBA linker-drug on the engineered cysteine at HC position 41 (Kabat); DAR 1.8
B9: ADC3c (antibody, human IgG1, kappa, V domains shown)
VH: B7 VH
VL: B7 VL with L4M, F83V, P100S, V104L, D105E
modifications: vc-seco-DUBA linker-drug on the engineered cysteine at HC position 41 (Kabat); DAR 1.8
B10: ADC3e (antibody, human IgG1, kappa, V domains shown)
VH: B7 VH with V5Q, Q6E, L70M, T72R, I76T, A79V, T87R, D89E, L93V
VL: B7 VL with L4M, F83V, P100S, V104L, D105E
modifications: vc-seco-DUBA linker-drug on the engineered cysteine at HC position 41 (Kabat); DAR 1.9
B11: ADC2 (antibody, human IgG1, kappa, V domains shown)
VH: QVQLQQSGAELVRPGASVKLSCKASGYVFPDYEMHWVKQTCVHGLEWIGAFDPETGDTTYNQNFKGKATLTADKASSTAYMDLRSLTSGDSAVYYCARDYKYLYYYAMDNWGQGTSVTVSS
VL: QIVLTQSPAIMSASLGERVTMTCTASSSITSSYLHWYQQKPGSSPKLWIYSTTNLASGVPGRFSGSGSGTSFSLTISSMEAEDAATYYCHQYRRSPLTFGAGTKLELKR
modifications: vc-seco-DUBA linker-drug on the engineered cysteine at HC position 41 (Kabat); DAR 1.7

Columns and labels:
[1] = target: human c-Met (HGFR), full length, on the cell surface (human) (UniProt P08581); assay: cell-based or functional assay
[2] = target: human c-Met (HGFR), full length, on the cell surface (human, UniProt P08581 25-1390); assay: cell-based or functional assay
human c-Met (HGFR), full length, on the cell surface, sequence (P08581 25-1390 limits assumed): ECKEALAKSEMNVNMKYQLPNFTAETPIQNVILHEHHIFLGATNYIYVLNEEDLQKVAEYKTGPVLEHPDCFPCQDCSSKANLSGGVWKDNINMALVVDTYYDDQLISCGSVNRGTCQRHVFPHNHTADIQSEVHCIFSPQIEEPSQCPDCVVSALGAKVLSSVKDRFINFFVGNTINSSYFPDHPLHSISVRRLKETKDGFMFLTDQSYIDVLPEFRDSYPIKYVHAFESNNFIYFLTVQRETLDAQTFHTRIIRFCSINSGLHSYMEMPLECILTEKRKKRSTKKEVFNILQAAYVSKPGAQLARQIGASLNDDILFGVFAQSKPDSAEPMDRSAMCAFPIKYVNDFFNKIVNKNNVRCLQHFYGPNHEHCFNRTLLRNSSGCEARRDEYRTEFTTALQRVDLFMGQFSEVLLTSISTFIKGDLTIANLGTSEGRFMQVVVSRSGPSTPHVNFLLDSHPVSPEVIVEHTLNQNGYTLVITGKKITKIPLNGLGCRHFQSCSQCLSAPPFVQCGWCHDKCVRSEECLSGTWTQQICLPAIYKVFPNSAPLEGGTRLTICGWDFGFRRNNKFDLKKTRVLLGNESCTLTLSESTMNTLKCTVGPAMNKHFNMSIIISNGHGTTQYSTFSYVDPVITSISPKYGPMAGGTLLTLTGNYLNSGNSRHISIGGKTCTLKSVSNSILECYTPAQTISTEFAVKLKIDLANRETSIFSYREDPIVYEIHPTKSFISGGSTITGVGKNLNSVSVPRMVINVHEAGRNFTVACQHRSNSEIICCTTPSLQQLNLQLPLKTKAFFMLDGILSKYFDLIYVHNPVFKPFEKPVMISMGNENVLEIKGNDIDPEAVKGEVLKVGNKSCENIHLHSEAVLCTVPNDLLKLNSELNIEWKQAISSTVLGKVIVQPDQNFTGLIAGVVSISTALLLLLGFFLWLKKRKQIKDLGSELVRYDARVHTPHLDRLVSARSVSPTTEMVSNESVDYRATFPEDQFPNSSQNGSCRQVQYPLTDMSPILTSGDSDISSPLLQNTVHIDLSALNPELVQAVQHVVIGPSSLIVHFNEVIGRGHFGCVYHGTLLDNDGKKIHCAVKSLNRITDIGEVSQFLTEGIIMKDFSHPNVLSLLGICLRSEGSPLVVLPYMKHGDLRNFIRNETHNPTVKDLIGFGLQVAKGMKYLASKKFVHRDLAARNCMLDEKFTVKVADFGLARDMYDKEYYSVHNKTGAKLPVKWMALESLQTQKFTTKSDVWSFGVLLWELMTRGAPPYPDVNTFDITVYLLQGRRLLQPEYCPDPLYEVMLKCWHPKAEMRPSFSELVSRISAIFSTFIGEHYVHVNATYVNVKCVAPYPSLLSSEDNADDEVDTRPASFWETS

human c-Met (HGFR), full length, on the cell surface (human), sequence (P08581 25-1390 limits assumed): as above

| Molecule | Efficacy (%), in vitro cytotoxicity, MKN-45, -HGF [2] | Efficacy (%), in vitro cytotoxicity, NCI-H596, +HGF [2] | Efficacy (%), in vitro cytotoxicity, NCI-H596, -HGF [2] | Efficacy (%), in vitro cytotoxicity, PC-3, +HGF [2] | Efficacy (%), in vitro cytotoxicity, PC-3, -HGF [2] | IC50, in vitro cytotoxicity, MKN-45, -HGF [2] | IC50, in vitro cytotoxicity, NCI-H596, +HGF [2] | IC50, in vitro cytotoxicity, NCI-H596, -HGF [2] | IC50, in vitro cytotoxicity, PC-3, +HGF [2] | IC50 1, in vitro cytotoxicity, PC-3, -HGF [2] | IC50 2, in vitro cytotoxicity, PC-3, -HGF [2] | also measured |
| --- | --- | --- | --- | --- | --- | --- | --- | --- | --- | --- | --- | --- |
| non-binding control ADC (rituximab-vc-seco-DUBA) (antibody) | – | – | – | – | – | – | – | – | – | – | – | Efficacy (%), in vitro cytotoxicity, MKN-45, -HGF [1]: 0%; Efficacy (%), in vitro cytotoxicity, NCI-H596, +HGF [1]: 18%; Efficacy (%), in vitro cytotoxicity, NCI-H596, -HGF [1]: 7%; Efficacy (%), in vitro cytotoxicity, PC-3, +HGF [1]: 36%; Efficacy (%), in vitro cytotoxicity, PC-3, -HGF [1]: 36%; IC50, in vitro cytotoxicity, MKN-45, -HGF [1]: > 10 nM; IC50, in vitro cytotoxicity, NCI-H596, +HGF [1]: > 10 nM; IC50, in vitro cytotoxicity, NCI-H596, -HGF [1]: > 10 nM; IC50, in vitro cytotoxicity, PC-3, +HGF [1]: > 10 nM; IC50, in vitro cytotoxicity, PC-3, -HGF [1]: > 10 nM |
| B1 | 72% | 29% | 16% | 42% | 41% | 0.73 nM | 0.38 nM | > 10 nM | 0.185 nM | – | – | IC50, in vitro cytotoxicity, PC-3, -HGF [2]: 0.069 nM |
| B2 | 86% | 26% | 8% | 76% | 77% | 0.44 nM | > 10 nM | > 10 nM | ~0.74 nM | 0.06 nM | 40 nM | – |
| B3 | 84% | 34% | 10% | 75% | 77% | 0.4 nM | > 10 nM | > 10 nM | ~2.46 nM | 0.05 nM | 100 nM | – |
| B4 | 84% | 32% | 3% | 75% | 76% | 0.41 nM | > 10 nM | > 10 nM | ~1.97 nM | 0.08 nM | 58 nM | – |
| B5 | 84% | 40% | 14% | 77% | 78% | 0.42 nM | > 10 nM | > 10 nM | ~1.22 nM | 0.6 nM | 224 nM | – |
| B6 | 50% | 53% | 16% | 30% | 24% | 0.77 nM | 1.86 nM | > 10 nM | 0.224 nM | – | – | IC50, in vitro cytotoxicity, PC-3, -HGF [2]: 0.076 nM |
| B7 | 85% | 43% | 3% | 72% | 73% | 0.55 nM | 2.14 nM | > 10 nM | ~0.71 nM | 0.05 nM | 5.77 nM | – |
| B8 | 82% | 41% | 5% | 73% | 74% | 0.5 nM | 2.17 nM | > 10 nM | ~2.49 nM | 0.04 nM | 54 nM | – |
| B9 | 84% | 44% | 10% | 72% | 73% | 0.41 nM | 1.89 nM | > 10 nM | ~1.85 nM | 0.04 nM | 112 nM | – |
| B10 | 81% | 44% | 11% | 74% | 74% | 0.46 nM | 2.52 nM | > 10 nM | ~2.86 nM | 0.04 nM | 541 nM | – |
| B11 | 76% | 32% | 6% | 69% | 69% | 0.44 nM | > 10 nM | > 10 nM | ~10 nM | 0.05 nM | 84 nM | – |
